According to the supplement of paper PMC9170038:

System: MS2 coat protein
Assay: apparent KD of MS2 coat protein; designed switch direction (-1 OFF switch, 1 ON switch): -1; higher = weaker reporter binding
In short: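 The apparent KD reported per design is the median over clusters of curve fits to normalised cluster fluorescence. The RNA switches were transcribed on Illumina chips by stalled E. coli RNA polymerase. SNAP-549-labelled MS2 coat protein was titrated from 0.7 or 1.5 nM, doubling up to 3 µM, in Tris-HCl pH 7.5 buffer containing KCl, MgCl2, BSA, DTT, tRNA and Tween-20, with no input, 200 uM small-molecule ligand, or an oligonucleotide input.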

[1] = Eterna round: R95, input ligand: FMN 200 uM
[2] = Eterna round: R95, input ligand: microRNA oligo, concentration not stated
[3] = Eterna round: R95, input ligand: none
[4] = input ligand: microRNA oligo, concentration not stated

Sequence	apparent KD of MS2 coat protein [1]	apparent KD of MS2 coat protein [2]	apparent KD of MS2 coat protein [3]	apparent KD of MS2 coat protein (input ligand: FMN 200 uM)	apparent KD of MS2 coat protein [4]	apparent KD of MS2 coat protein (input ligand: none)
AAGUACCGUCACGAUAGUGAUGGUACAACAAGCAAGUGAACAUGAGGAUCACCCAUGUCCUCAAUUGCUCGUCUUAU [Sensor 3 - 71] (puzzle: Sensor v3, turn-off variant 2)	28.1 nM	62.1 nM	28.5 nM			
AAGUACCGUCACGAUAGUGAUGGUACAACAAGCAGUGAUACAUGAGGAUCACCCAUGUCCUCAAUUGCUCGUCUUAU [Sensor 3 - 75] (puzzle: Sensor v3, turn-off variant 2)	133 nM	307 nM	157 nM			
AAGUACCGUCACGAUAGUGAUGGUACAACAAGUAGUGAAACAUGAGGAUCACCCAUGUCCUCUUUUGCUCGUCUUAU [Sensor 3 - 88] (puzzle: Sensor v3, turn-off variant 2)	931 nM	54 nM	969 nM			
AAGUACCGUCACGAUAGUGAUGGUACAACAAGUGAAUGUACAUGAGGAUCACCCAUGUCCUCUUUUGCUCGUCUUAU [Sensor 3 - 92] (puzzle: Sensor v3, turn-off variant 2)	151 nM	30.9 nM	184 nM			
AAGUACUACAAGCUUAGGGACAUGAGGAUCACCCAUGUUCGUCUUAUUGAUCUAGGUACGCUGACGUACCUAGAUCU [Mat - Sensor v3 - turn-off var 1 - JL Mod - D9] (puzzle: Sensor v3, turn-off variant 1)	15.2 nM	58.6 nM	13.2 nM			
AAGUAGAGCUAAGGAUAUAUAGAGUAGUAGAAGAUAGAAGGUAGAAGUAGAAGAUGAUGAUGAAGAUGAAGUAGAUGAAGUAGA [TEST1] (Eterna round: R96, puzzle: Exclusion NG 1)				24.7 nM	209 nM	19.9 nM
AAGUAGCAUGCAGGAUAUGGUAAUCGAACGUUACCAGAAGGGCAUGAGGAUCACCCAUGUUCUCAUUUGUAAGAACAGAUGUCU [Ex NG1 #7] (Eterna round: R96, puzzle: Exclusion NG 1)				251 nM	110 nM	94.4 nM
AAGUAUAGAGGAUAUAGUAGGUACAACAUGAGGAUCACCCAUGUUCUUCAUAACGUAUUUCUAGAAGGCUGAUAAA [EX-5 Malc#27] (Eterna round: R96, puzzle: Exclusion 5)				356 nM	135 nM	126 nM
AAGUAUAGAGGAUAUAGUAGGUACAACAUGAGGAUCACCCAUGUUCUUCAUAACGUAUUUCUAGAAGGCUGAUAAA [EX-5 Malc#27] (puzzle: Exclusion 5)		174 nM				
AAGUAUAGAGGAUAUAGUAGUUACAACAUGAGGAUCACCCAUGUUCUUCAUAACGUAGAUCUAGAAGGCUGAUAAA [EX-5 Malc#29] (puzzle: Exclusion 5)	145 nM	114 nM	140 nM			
AAGUCACAGGGAGGAUAUGUGAAAGGAAGUGUAACAGAAGGCCCAACGUAGGGCGAGACAUGAGGAUCACCCAUGUAUAAAAGA [PowerStrip EXNG 1.16] (Eterna round: R96, puzzle: Exclusion NG 1)				28.9 nM	20.8 nM	25.9 nM
AAGUCUGGUGUAAGGAUAUUGUUAGACUUGGUGAGCAAGAAGGUACAUGAGGAUCACCCAUGUGGGAUACUAGC [Eternabot (Original) Solution 41] (Eterna round: R97, puzzle: Brourd's mod of Exclusion 4)				40.5 nM		40 nM
AAUAACAAGCAGAUCCUAAACAUGAGGAUCACCCAUGUGCUCGUCUUGUUGUACUAUCACUCGAAAGUGAUAGUACA (Eterna round: R97, puzzle: Sensor, turn-off variant 1)				90.1 nM		104 nM
AAUAACAAGCCGAUCCUAAACAUGAGGAUCACCCAUGUGCUCGUCUUGUAAAGUACUAUCACGAAAGUGAUAGUACA (Eterna round: R96, puzzle: Sensor v3, turn-off variant 1)				18.1 nM	220 nM	19.3 nM
AAUAACAAGCCGAUCCUAAACAUGAGGAUCACCCAUGUGCUCGUCUUGUAAAGUACUAUCACGAAAGUGAUAGUACA (Eterna round: R97, puzzle: Sensor, turn-off variant 1)				24.5 nM		18 nM
AAUAACAAGCCGAUCCUAAACAUGAGGAUCACCCAUGUGCUCGUCUUGUAAAGUACUAUCACGAAAGUGAUAGUACA (puzzle: Sensor v3, turn-off variant 1)	16.3 nM	345 nM	14.5 nM			
AAUAACAAGCCGAUCCUCUACAUGAGGAUCACCCAUGUGUUCGUCUUGUAAAGUACUAUCACGAAAGUGAUAGUACA (Eterna round: R97, puzzle: Sensor, turn-off variant 1)				209 nM		244 nM
AAUAACAAGUUGAUCCUACACAUGAGGAUCACCCAUGUGCUCGUCUUGUCAAGUACUAUCACGAAAGUGUUAGUUCA [Mod-Hyphema] (Eterna round: R97, puzzle: Sensor, turn-off variant 1)				74.7 nM		263 nM

Sequence	apparent KD of MS2 coat protein [1]	apparent KD of MS2 coat protein [2]	apparent KD of MS2 coat protein [3]	apparent KD of MS2 coat protein (input ligand: FMN 200 uM)	apparent KD of MS2 coat protein [4]	apparent KD of MS2 coat protein (input ligand: none)
AAUAACAGAGGAUAUACUAUAAUAUGAAUAAAAUAAAUAAAACAUGAGGAUCACCCAUGUAGAAGGCUGAAUAA [JMF's Not so obvious solution 10] (puzzle: Exclusion 2)	17.1 nM	20 nM	21.1 nM			
AAUAACAGAGGAUAUACUAUUUUAUGUAUUUAUUAUUUUAAACAUGAGGAUCACCCAUGUAGAAGGCUGAGUAA [JMF 27] (puzzle: Exclusion 2)		22.2 nM				
AAUAACAGAGGAUAUACUAUUUUAUGUGUUUAUUGUUUUAAACAUGAGGAUCACCCAUGUAGAAGGCUGAUUAA [JMF 45] (puzzle: Exclusion 2)		61.9 nM				
AAUAACAGAGGAUAUACUAUUUUAUGUGUUUAUUGUUUUAAACAUGAGGAUCACCCAUGUAGAAGGCUGAUUGA [JMF 73] (puzzle: Exclusion 2)		65.5 nM				
AAUAACAGAGGAUAUACUAUUUUAUGUGUUUAUUGUUUUGAACAUGAGGAUCACCCAUGUAGAAGGCUGAUUAA [JMF 51] (puzzle: Exclusion 2)		35.3 nM				
AAUAACAGAGGAUAUACUGUUUUAUGUGUUUGUUAUUUUGAACAUGAGGAUCACCCAUGUAGAAGGCUGAUUAA [JMF 50] (puzzle: Exclusion 2)		37.4 nM				
AAUAACAGAGGAUAUACUGUUUUAUGUGUUUGUUGUUUUGAACAUGAGGAUCACCCAUGUAGAAGGCUGAUUGA [JMF 79] (puzzle: Exclusion 2)		38.7 nM				
AAUAAUACAGGAUAUACAGUUUAUUACAUGAGGAUCACCCAUGUUCUUCAAUGUAUAUAAGUAGAAGGGUAAGGAA [EX-5 Malc#1] (puzzle: Exclusion 5)	50.9 nM	25.1 nM	24.3 nM			
AAUAAUAGCGAGGAUAUCGUAUCGGAAACGAUACGAGAAGGCGUAACAUGAGGAUCACCCAUGUUCCUCAAUAA [Fiskers Ex 6 - 3] (Eterna round: R96, puzzle: Exclusion 6)				354 nM	39.8 nM	41 nM
AAUAAUAGCGAGGAUAUCGUAUCGGAAACGAUACGAGAAGGCGUAACAUGAGGAUCACCCAUGUUCCUCAAUAA [Fiskers Ex 6 - 3] (puzzle: Exclusion 6)		39.7 nM				
AAUAAUCGGGCCUUCCUAAUACAUGAGGAUCACCCAUGUCUCGAGGAUAUACCAACGCACGGUCCGUAGAAGGCGAGACCACAC [Vesoonso] (Eterna round: R96, puzzle: Exclusion NG 3)				24.2 nM	13.2 nM	21.9 nM
AAUACAAGCUAUUGAUCCCACAUGAGGAUCACCCAUGUGCCUGGCCGUGAGACCAGGUUUACAAUAGCUCGUCUUAU [Sensor-V1 #47] (Eterna round: R97, puzzle: Sensor, turn-off variant 1)				23.5 nM		23.5 nM
AAUACACAUGAGGAUCACCCAUGUUAGGAUAUUCGCGGGAAAGCUGUCAAAACGCCGAGGAGAAGGAACAGGAA [Excls1-X] (puzzle: Exclusion 1)	40 nM	33.7 nM	45.7 nM			
AAUAGCAAGUAAGAUCCUAACAUGAGGAUCACCCAUGUGCUCGUCUUGUAAAGUACUAUCACGAAAGUGAUAGUACA [Sensor 3, v1 - 50] (puzzle: Sensor v3, turn-off variant 1)	108 nM	69.4 nM	146 nM			
AAUCAUAGGUAAGGAUAUGAAGAUCUGGUGGUGACAUGAGGAUCACCCAUGUGAAAACGAUGAGAUCAGAAGGUACAAUAUGAA [AK ExNG2-4] (Eterna round: R96, puzzle: Exclusion NG 2)				108 nM	18 nM	88.3 nM
AAUCCACAUGAGGAUCACCCAUGUCAGGAUAUGGUGACGCGGGUUUCGGUGCGUGUUGCCAGAAGGGACGGCUG (puzzle: Exclusion 1)		23.8 nM				
AAUCCUAGCGUAAGGAUAUCAAAACUAUCCCGUUAUGAGAAGGUACAUGAGGAUCACCCAUGUUAAUGGGAUAA [BmEX4 A.19] (Eterna round: R97, puzzle: Brourd's mod of Exclusion 4)				20.2 nM		19.3 nM
